# Results: the supplement of paper PMC10567573
# B1: KCNAB2 (parent)
# chain: SSIIHEIDSILGNKPYSKKDYRS
# Variants of: B1
# Test: protein stability index of a GFP-peptide fusion (GPS, HEK-293T) (PSI 1-6); higher = more stable
# Conditions: c terminus: native
# 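Note: lentivirally expressed fusions sorted by FACS into six bins by GFP to DsRed ratio, PSI derived from sequencing read proportions per bin multiplied by bin number.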
row,Variant,protein stability index
1,SSIIHEIDSILGNYPYSKKDYRS [K14Y],2.32
2,SSIIHEIDSILGNWPYSKKDYRS [K14W],1.7
3,SSIIHEIDSILGNKPWSKKDYRS [Y16W],2.19
4,SSIIHEIDSILGNKPDSKKDYRS [Y16D],3.65
5,SSIIHEIDSILGNKPPSKKDYRS [Y16P],3.6
6,SSIIHEIDSILGNKPRSKKDYRS [Y16R],2.22
7,SSIIHEIDSILGNKPTSKKDYRS [Y16T],3.78
8,SSIIHEIDSILGNKPVSKKDYRS [Y16V],3.26
9,SSIIHEIDSILGNKPQSKKDYRS [Y16Q],3.14
10,SSIIHEIDSILGNKPMSKKDYRS [Y16M],2.71
11,SSIIHEIDSILGNKPASKKDYRS [Y16A],2.85
12,SSIIHEIDSILGNKPISKKDYRS [Y16I],3.8
13,SSIIHEIDSILGNKPHSKKDYRS [Y16H],3.27
14,SSIIHEIDSILGNKPFSKKDYRS [Y16F],3.41
15,SSIIHEIDSILGNKPKSKKDYRS [Y16K],2.48
16,SSIIHEIDSILGNKPGSKKDYRS [Y16G],3.59
17,SSIIHEIDSILGNKPLSKKDYRS [Y16L],3.22
18,SSIIHEIDSILGNKPCSKKDYRS [Y16C],3.55
19,SSIIHEIDSILGNKPSSKKDYRS [Y16S],3.02
20,SSIIHEIDSILGNKPNSKKDYRS [Y16N],3.34
21,SSIIHEIDSILGNKPESKKDYRS [Y16E],4.12
22,SSIIHEIDSILGNKPYSSKDYRS [K18S],2.69
23,SSIIHEIDSILGNKPYSFKDYRS [K18F],2.32
24,SSIIHEIDSILGNKPYSMKDYRS [K18M],1.27
25,SSIIHEIDSILGNKPYSNKDYRS [K18N],3.1

row,Variant,protein stability index
1,SSIIHEIDSILGNKPYSTKDYRS [K18T],2.56
2,SSIIHEIDSILGNKPYSPKDYRS [K18P],2.03
3,SSIIHEIDSILGNKPYSQKDYRS [K18Q],2.76
4,SSIIHEIDSILGNKPYSCKDYRS [K18C],2.08
5,SSIIHEIDSILGNKPYSAKDYRS [K18A],2.33
6,SSIIHEIDSILGNKPYSHKDYRS [K18H],2.48
7,SSIIHEIDSILGNKPYSLKDYRS [K18L],2.12
8,SSIIHEIDSILGNKPYSYKDYRS [K18Y],2.24
9,SSIIHEIDSILGNKPYSIKDYRS [K18I],2.11
10,SSIIHEIDSILGNKPYSRKDYRS [K18R],2.94
11,SSIIHEIDSILGNKPYSWKDYRS [K18W],3.39
12,SSIIHEIDSILGNKPYSEKDYRS [K18E],3.16
13,SSIIHEIDSILGNKPYSDKDYRS [K18D],2.7
14,SSIIHEIDSILGNKPYSVKDYRS [K18V],2.59
15,SSIIHEIDSILGNKPYSGKDYRS [K18G],2.61
16,SSIIHEIDSILGNKPYFKKDYRS [S17F],3.2
17,SSIIHEIDSILGNKPYWKKDYRS [S17W],2.29
18,SSIIHEIDSILGNKPYCKKDYRS [S17C],3.79
19,SSIIHEIDSILGNKPYEKKDYRS [S17E],3.77
20,SSIIHEIDSILGNKPYHKKDYRS [S17H],2.95
21,SSIIHEIDSILGNKPYVKKDYRS [S17V],3.45
22,SSIIHEIDSILGNKPYMKKDYRS [S17M],3.2
23,SSIIHEIDSILGNKPYRKKDYRS [S17R],3.23
24,SSIIHEIDSILGNKPYPKKDYRS [S17P],3.31
25,SSIIHEIDSILGNKPYGKKDYRS [S17G],3.15

row,Variant,protein stability index
1,SSIIHEIDSILGNKPYNKKDYRS [S17N],2.99
2,SSIIHEIDSILGNKPYTKKDYRS [S17T],2.7
3,SSIIHEIDSILGNKPYKKKDYRS [S17K],3.43
4,SSIIHEIDSILGNKPYQKKDYRS [S17Q],3.76
5,SSIIHEIDSILGNKPYLKKDYRS [S17L],2.93
6,SSIIHEIDSILGNKPYDKKDYRS [S17D],3.22
7,SSIIHEIDSILGNKPYAKKDYRS [S17A],3.74
8,SSIIHEIDSILGNKPYIKKDYRS [S17I],3.54
9,SSIIHEIDSILGNKPYYKKDYRS [S17Y],2.8
10,SSIIHEIDSILGNKCYSKKDYRS [P15C],3.14
11,SSIIHEIDSILGNKLYSKKDYRS [P15L],2.84
12,SSIIHEIDSILGNKEYSKKDYRS [P15E],3.18
13,SSIIHEIDSILGNKGYSKKDYRS [P15G],3.36
14,SSIIHEIDSILGNKKYSKKDYRS [P15K],3.36
15,SSIIHEIDSILGNKIYSKKDYRS [P15I],3.18
16,SSIIHEIDSILGNKAYSKKDYRS [P15A],3.54
17,SSIIHEIDSILGNKWYSKKDYRS [P15W],2.44
18,SSIIHEIDSILGNKFYSKKDYRS [P15F],2.32
19,SSIIHEIDSILGNKTYSKKDYRS [P15T],3.33
20,SSIIHEIDSILGNKDYSKKDYRS [P15D],3.27
21,SSIIHEIDSILGNKQYSKKDYRS [P15Q],2.8
22,SSIIHEIDSILGNKVYSKKDYRS [P15V],2.71
23,SSIIHEIDSILGNKRYSKKDYRS [P15R],2.98
24,SSIIHEIDSILGNKYYSKKDYRS [P15Y],2.63
25,SSIIHEIDSILGNKMYSKKDYRS [P15M],3.28

row,Variant,protein stability index
1,SSIIHEIDSILGNKSYSKKDYRS [P15S],3.42
2,SSIIHEIDSILGNKHYSKKDYRS [P15H],2.63
3,SSIIHEIDSILGNKNYSKKDYRS [P15N],3.39
4,SSIIHEIDSILGNKPYSKADYRS [K19A],3.55
5,SSIIHEIDSILGNKPYSKMDYRS [K19M],3.75
6,SSIIHEIDSILGNKPYSKFDYRS [K19F],2.66
7,SSIIHEIDSILGNKPYSKRDYRS [K19R],2.89
8,SSIIHEIDSILGNKPYSKIDYRS [K19I],3.3
9,SSIIHEIDSILGNKPYSKHDYRS [K19H],3.9
10,SSIIHEIDSILGNKPYSKNDYRS [K19N],4.06
11,SSIIHEIDSILGNKPYSKWDYRS [K19W],2.8
12,SSIIHEIDSILGNKPYSKYDYRS [K19Y],2.45
13,SSIIHEIDSILGNKPYSKCDYRS [K19C],3.2
14,SSIIHEIDSILGNKPYSKTDYRS [K19T],4.16
15,SSIIHEIDSILGNKPYSKLDYRS [K19L],3.58
16,SSIIHEIDSILGNKPYSKSDYRS [K19S],3.92
17,SSIIHEIDSILGNKPYSKDDYRS [K19D],4.08
18,SSIIHEIDSILGNKPYSKPDYRS [K19P],4.09
19,SSIIHEIDSILGNKPYSKQDYRS [K19Q],3.87
20,SSIIHEIDSILGNKPYSKVDYRS [K19V],3.82
21,SSIIHEIDSILGNKPYSKGDYRS [K19G],3.84
22,SSIIHEIDSILGNKPYSKEDYRS [K19E],4.45
